1 substance from article PMC2819989 can be followed below.

This assay addresses RhiG-C-His (Bacillus subtilis ATCC6633). Description: SEC.

As usually defined, the stoichiometry N is the number of molecules, sites or subunits per partner or assembly. RhiG-C-His (enzyme) returned a stoichiometry N of 2.
